Data on 23 variants can be found in FireProtDB (doi:10.1093/protein/gzw068).

A word on the Tm: it is the temperature at which the thermal transition is half complete.

The labels stand for the following.
B1: E64Q, Q93D82 (parent)
chain: MSTAIVTNVKHFGGMGSALRLSEAGHTVACHDESFKQKDELEAFAETYPQLKPMSEQEPAELIEAVTSAYGQVDVLVSNDIFAPEFQPIDKYAVEDYRGAVEALQIRPFALVNAVASQMKKRKSGHIIFITSATPFGPWKELSTYTSARAGACTLANALSKELGEYNIPVFAIGPNYLHSEDSPYFYPTEPWKTNPEHVAHVKKVTALQRLGTQKELGELVAFLASGSCDYLTGQVFWLAGGFPMIERWPGMPE

In the data set the parent is B1. The note with it: Rhizobium radiobacter; pH 7.7; Thermal; CD; Phosphate 5mM; structure 1PWX; whole UniProt chain shown.

In the case of MSTAIVTNVKHFGGMGSALRLSEAGHTVACHDESFKQKDELEAFAETYPQLKPMSEQEPAELIQAVTSAYGQVDVLVSNDIFAPEFQPIDKYAVEDYRGAVEALQIRPFALVNAVASQMKKRKSGHIIFITSATPFGPWKELSTYTSARAGACTLANALSKELGEYNIPVFAIGPNYLHSEDSPYFYPTEPWKTNPEHVAHVKKVTALQRLGTQKELGELVAFLASGSCDYLTGQVFWLAGGFPMIERWPGMPE [E64Q], the melting temperature (Tm) stood at 66 °C and the “change of melting temperature, mutant - wild type (higher = more stable)” value (from here on “change of melting temperature, mutant”) was determined as 1 °C.
As for MSTAIVTNVKHFGGMGSALRLSEAGHTVACHDESFKQKDELEAFAETYPQLKPMSEQEPAELIAAVTSAYGQVDVLVSNDIFAPEFQPIDKYAVEDYRGAVEALQIRPFALVNAVASQMKKRKSGHIIFITSATPFGPWKELSTYTSARAGACTLANALSKELGEYNIPVFAIGPNYLHSEDSPYFYPTEPWKTNPEHVAHVKKVTALQRLGTQKELGELVAFLASGSCDYLTGQVFWLAGGFPMIERWPGMPE [E64A], the Tm came to 66 °C and the “change of melting temperature, mutant” value came out at 1 °C.
For the variant MSTAIVTNVKHFGGMGSALRLSEAGHTVACHDESFKQKDELEAFAETYPQLKPMSEQEPAELIKAVTSAYGQVDVLVSNDIFAPEFQPIDKYAVEDYRGAVEALQIRPFALVNAVASQMKKRKSGHIIFITSATPFGPWKELSTYTSARAGACTLANALSKELGEYNIPVFAIGPNYLHSEDSPYFYPTEPWKTNPEHVAHVKKVTALQRLGTQKELGELVAFLASGSCDYLTGQVFWLAGGFPMIERWPGMPE [E64K], the Tm is 65 °C and the “change of melting temperature, mutant” value stood at 0 °C.
The like results for MSTAIVTNVKHFGGMGSALRLSEAGHTVACHDESFKQKDELEAFAESYPQLKPMSEQEPAELIEAVTSAYGQVDVLVSNDIFAPEFQPIDKYAVEDYRGAVEALQIRPFALVNAVASQMKKRKSGHIIFITSATPFGPWKELSTYTSARAGACTLANALSKELGEYNIPVFAIGPNYLHSEDSPYFYPTEPWKTNPEHVAHVKKVTALQRLGTQKELGELVAFLASGSCDYLTGQVFWLAGGFPMIERWPGMPE [T47S] were, in that order, 64.5 °C and -0.5 °C.
The like results for MSTAIVTNVKHFGGMGSALRLSEAGHTVACHDESFKQKDELEAFAETYPQLKPMSAQEPAELIEAVTSAYGQVDVLVSNDIFAPEFQPIDKYAVEDYRGAVEALQIRPFALVNAVASQMKKRKSGHIIFITSATPFGPWKELSTYTSARAGACTLANALSKELGEYNIPVFAIGPNYLHSEDSPYFYPTEPWKTNPEHVAHVKKVTALQRLGTQKELGELVAFLASGSCDYLTGQVFWLAGGFPMIERWPGMPE [E56A] were, in that order, 65 °C and 0 °C.
For MSTAIVTNVKHFGGMGSALRLSEAGHTVACHDESFKQKDELEAFAETYPQLKPFSEQEPAELIEAVTSAYGQVDVLVSNDIFAPEFQPIDKYAVEDYRGAVEALQIRPFALVNAVASQMKKRKSGHIIFITSATPFGPWKELSTYTSARAGACTLANALSKELGEYNIPVFAIGPNYLHSEDSPYFYPTEPWKTNPEHVAHVKKVTALQRLGTQKELGELVAFLASGSCDYLTGQVFWLAGGFPMIERWPGMPE [M54F] the same measures were 63.5 °C and -1.5 °C.
For the variant MSTAIVTNVKHFGGMGSALRLSEAGHTVACHDESFKQKDELEAFAETYPQLKPMSEQEPRELIEAVTSAYGQVDVLVSNDIFAPEFQPIDKYAVEDYRGAVEALQIRPFALVNAVASQMKKRKSGHIIFITSATPFGPWKELSTYTSARAGACTLANALSKELGEYNIPVFAIGPNYLHSEDSPYFYPTEPWKTNPEHVAHVKKVTALQRLGTQKELGELVAFLASGSCDYLTGQVFWLAGGFPMIERWPGMPE [A60R], the Tm was found to be 66.5 °C and the “change of melting temperature, mutant” value was found to be 1.5 °C.
For MSTAIVTNVKHFGGMGSALRLSEAGHTVACHDESFKQKDELEAFAETYPQLKPMSEQEPKELIEAVTSAYGQVDVLVSNDIFAPEFQPIDKYAVEDYRGAVEALQIRPFALVNAVASQMKKRKSGHIIFITSATPFGPWKELSTYTSARAGACTLANALSKELGEYNIPVFAIGPNYLHSEDSPYFYPTEPWKTNPEHVAHVKKVTALQRLGTQKELGELVAFLASGSCDYLTGQVFWLAGGFPMIERWPGMPE [A60K], the Tm is 61 °C and the “change of melting temperature, mutant” value was -4 °C.
Turning to MSTAIVTNVKHFGGMGSALRLSEAGHTVACHDESFKQKDELEAFAETYPQLKPMSEQEPLELIEAVTSAYGQVDVLVSNDIFAPEFQPIDKYAVEDYRGAVEALQIRPFALVNAVASQMKKRKSGHIIFITSATPFGPWKELSTYTSARAGACTLANALSKELGEYNIPVFAIGPNYLHSEDSPYFYPTEPWKTNPEHVAHVKKVTALQRLGTQKELGELVAFLASGSCDYLTGQVFWLAGGFPMIERWPGMPE [A60L], the Tm turned out to be 63 °C and the “change of melting temperature, mutant” value was -2 °C.
For MSTAIVTNVKHFGGMGSALRLSEAGHTVACHDESFKQKDELEAFAETYPQLKPMSEQEPYELIEAVTSAYGQVDVLVSNDIFAPEFQPIDKYAVEDYRGAVEALQIRPFALVNAVASQMKKRKSGHIIFITSATPFGPWKELSTYTSARAGACTLANALSKELGEYNIPVFAIGPNYLHSEDSPYFYPTEPWKTNPEHVAHVKKVTALQRLGTQKELGELVAFLASGSCDYLTGQVFWLAGGFPMIERWPGMPE [A60Y] the same measures were 64.5 °C and -0.5 °C.
For MSTAIVTNVKHFGGMGSALRLSEAGHTVACHDESFKQKDELEAFAETFPQLKPMSEQEPAELIEAVTSAYGQVDVLVSNDIFAPEFQPIDKYAVEDYRGAVEALQIRPFALVNAVASQMKKRKSGHIIFITSATPFGPWKELSTYTSARAGACTLANALSKELGEYNIPVFAIGPNYLHSEDSPYFYPTEPWKTNPEHVAHVKKVTALQRLGTQKELGELVAFLASGSCDYLTGQVFWLAGGFPMIERWPGMPE [Y48F] the same measures were 65.5 °C and 0.5 °C.
With MSTAIVTNVKHFGGMGSALRLSEAGHTVACHDESFKQKDELEAFAETYPQLKPMSEQEPAELIEAVTKAYGQVDVLVSNDIFAPEFQPIDKYAVEDYRGAVEALQIRPFALVNAVASQMKKRKSGHIIFITSATPFGPWKELSTYTSARAGACTLANALSKELGEYNIPVFAIGPNYLHSEDSPYFYPTEPWKTNPEHVAHVKKVTALQRLGTQKELGELVAFLASGSCDYLTGQVFWLAGGFPMIERWPGMPE [S68K], the Tm worked out at 65 °C and the “change of melting temperature, mutant” value was determined as 0 °C.
For MSTAIVTNVKHFGGMGSALRLSEAGHTVACHDESFKQKDELEAFAETYPQLKPMSEQEPAELIEAVTQAYGQVDVLVSNDIFAPEFQPIDKYAVEDYRGAVEALQIRPFALVNAVASQMKKRKSGHIIFITSATPFGPWKELSTYTSARAGACTLANALSKELGEYNIPVFAIGPNYLHSEDSPYFYPTEPWKTNPEHVAHVKKVTALQRLGTQKELGELVAFLASGSCDYLTGQVFWLAGGFPMIERWPGMPE [S68Q] the same measures were 63 °C and -2 °C.
For MSTAIVTNVKHFGGMGSALRLSEAGHTVACHDESFKQKDELEAFAETYPQLKPMSEQEPAELIEAVTRAYGQVDVLVSNDIFAPEFQPIDKYAVEDYRGAVEALQIRPFALVNAVASQMKKRKSGHIIFITSATPFGPWKELSTYTSARAGACTLANALSKELGEYNIPVFAIGPNYLHSEDSPYFYPTEPWKTNPEHVAHVKKVTALQRLGTQKELGELVAFLASGSCDYLTGQVFWLAGGFPMIERWPGMPE [S68R] the same measures were 66.5 °C and 1.5 °C.
For MSTAIVTNVKHFGGMGSALRLSEAGHTVACHDESFKQKDELEAFAETYPQLKPMSEQEPAELIEAVTNAYGQVDVLVSNDIFAPEFQPIDKYAVEDYRGAVEALQIRPFALVNAVASQMKKRKSGHIIFITSATPFGPWKELSTYTSARAGACTLANALSKELGEYNIPVFAIGPNYLHSEDSPYFYPTEPWKTNPEHVAHVKKVTALQRLGTQKELGELVAFLASGSCDYLTGQVFWLAGGFPMIERWPGMPE [S68N] the same measures were 65.5 °C and 0.5 °C.
Turning to MSTAIVTNVKHFGGMGSALRLSEAGHTVACHDESFKQKDELEAFAETYPQLKPMSEQEPAELIEAVTSHYGQVDVLVSNDIFAPEFQPIDKYAVEDYRGAVEALQIRPFALVNAVASQMKKRKSGHIIFITSATPFGPWKELSTYTSARAGACTLANALSKELGEYNIPVFAIGPNYLHSEDSPYFYPTEPWKTNPEHVAHVKKVTALQRLGTQKELGELVAFLASGSCDYLTGQVFWLAGGFPMIERWPGMPE [A69H], the Tm is 64.5 °C and the “change of melting temperature, mutant” value is -0.5 °C.
MSTAIVTNVKHFGGMGSALRLSEAGHTVACHDESFKQKDELEAFAETYPQLKPMSEQQPAELIEAVTSAYGQVDVLVSNDIFAPEFQPIDKYAVEDYRGAVEALQIRPFALVNAVASQMKKRKSGHIIFITSATPFGPWKELSTYTSARAGACTLANALSKELGEYNIPVFAIGPNYLHSEDSPYFYPTEPWKTNPEHVAHVKKVTALQRLGTQKELGELVAFLASGSCDYLTGQVFWLAGGFPMIERWPGMPE [E58Q]: the Tm is 67.5 °C and the “change of melting temperature, mutant” value came out at 2.5 °C.
The like results for MSTAIVTNVKHFGGMGSALRLSEAGHTVACHDESFKQKDELEAFAETYPQLKPMSEQNPAELIEAVTSAYGQVDVLVSNDIFAPEFQPIDKYAVEDYRGAVEALQIRPFALVNAVASQMKKRKSGHIIFITSATPFGPWKELSTYTSARAGACTLANALSKELGEYNIPVFAIGPNYLHSEDSPYFYPTEPWKTNPEHVAHVKKVTALQRLGTQKELGELVAFLASGSCDYLTGQVFWLAGGFPMIERWPGMPE [E58N] were, in that order, 65 °C and 0 °C.
The like results for MSTAIVTNVKHFGGMGSALRLSEAGHTVACHDESFKQKDELEAFAETYPQLKPMSEQEPAQLIEAVTSAYGQVDVLVSNDIFAPEFQPIDKYAVEDYRGAVEALQIRPFALVNAVASQMKKRKSGHIIFITSATPFGPWKELSTYTSARAGACTLANALSKELGEYNIPVFAIGPNYLHSEDSPYFYPTEPWKTNPEHVAHVKKVTALQRLGTQKELGELVAFLASGSCDYLTGQVFWLAGGFPMIERWPGMPE [E61Q] were, in that order, 66.5 °C and 1.5 °C.
Take MSTAIVTNVKHFGGMGSALRLSEAGHTVACHDESFKQKDELEAFAETYPQLKPMSEQEPAKLIEAVTSAYGQVDVLVSNDIFAPEFQPIDKYAVEDYRGAVEALQIRPFALVNAVASQMKKRKSGHIIFITSATPFGPWKELSTYTSARAGACTLANALSKELGEYNIPVFAIGPNYLHSEDSPYFYPTEPWKTNPEHVAHVKKVTALQRLGTQKELGELVAFLASGSCDYLTGQVFWLAGGFPMIERWPGMPE [E61K]: the midpoint of thermal melting (Tm) turned out to be 68.5 °C and the “change of melting temperature, mutant” value was 3.5 °C.
For the variant MSTAIVTNVKHFGGMGSALRLSEAGHTVACHDESFKQKDELEAFAETYPQLKPMSEQEPARLIEAVTSAYGQVDVLVSNDIFAPEFQPIDKYAVEDYRGAVEALQIRPFALVNAVASQMKKRKSGHIIFITSATPFGPWKELSTYTSARAGACTLANALSKELGEYNIPVFAIGPNYLHSEDSPYFYPTEPWKTNPEHVAHVKKVTALQRLGTQKELGELVAFLASGSCDYLTGQVFWLAGGFPMIERWPGMPE [E61R], the midpoint of thermal melting (Tm) was found to be 64.5 °C and the “change of melting temperature, mutant” value is -0.5 °C.
For MSTAIVTNVKHFGGMGSALRLSEAGHTVACHDESFKQKDELEAFAETYPQLKPMPEQEPAELIEAVTSAYGQVDVLVSNDIFAPEFQPIDKYAVEDYRGAVEALQIRPFALVNAVASQMKKRKSGHIIFITSATPFGPWKELSTYTSARAGACTLANALSKELGEYNIPVFAIGPNYLHSEDSPYFYPTEPWKTNPEHVAHVKKVTALQRLGTQKELGELVAFLASGSCDYLTGQVFWLAGGFPMIERWPGMPE [S55P] the same measures were 65 °C and 0 °C.
Take MSTAIVTNVKHFGGMGSALRLSEAGHTVACHDESFKQKDELEAFAETYPQLKPMSEQEPAELIEAVQSAYGQVDVLVSNDIFAPEFQPIDKYAVEDYRGAVEALQIRPFALVNAVASQMKKRKSGHIIFITSATPFGPWKELSTYTSARAGACTLANALSKELGEYNIPVFAIGPNYLHSEDSPYFYPTEPWKTNPEHVAHVKKVTALQRLGTQKELGELVAFLASGSCDYLTGQVFWLAGGFPMIERWPGMPE [T67Q]: the Tm came to 63.5 °C and the “change of melting temperature, mutant” value was -1.5 °C.
